# Starred links: 1 amine or outer side, 2 acyl side, 3 side chain; linkers in the order of their positions; H or OH if unused. Positions of bridges follow the written chain, without caps; N, C: chain ends. Non-standard residues stand in square brackets, D forms with d. *: point of attachment. pXylylene = c1cc(C[*:2])ccc1C[*:1]; Palmitoyl = CCCCCCCCCCCCCCCC(=O)*; tBuAla = CC(C)(C)C[C@H](N)C(=O)O; Suc = O=C(CCC(=O)[*:2])[*:1]; Pentanoyl = CCCCC(=O)*
# Biological target: gp41 of HIV-1 strain HXB2D with mutation V38A (HIV-1 strain HXB2D, UniProt P04578)
# Experiment: cell-based or functional assay
row,Binder,"fold change in EC50, HIV-HXB2D V38A mutant [fold]"
1,Pentanoyl-ANYAALIEALIRAAQEQQEKNEAALR-NH2 (SMILES CCCCC(=O)N[C@@H](C)C(=O)N[C@@H](CC(N)=O)C(=O)N[C@@H](Cc1ccc(O)cc1)C(=O)N[C@@H](C)C(=O)N[C@@H](C)C(=O)N[C@@H](CC(C)C)C(=O)N[C@H](C(=O)N[C@@H](CCC(=O)O)C(=O)N[C@@H](C)C(=O)N[C@@H](CC(C)C)C(=O)N[C@H](C(=O)N[C@@H](CCCNC(=N)N)C(=O)N[C@@H](C)C(=O)N[C@@H](C)C(=O)N[C@@H](CCC(N)=O)C(=O)N[C@@H](CCC(=O)O)C(=O)N[C@@H](CCC(N)=O)C(=O)N[C@@H](CCC(N)=O)C(=O)N[C@@H](CCC(=O)O)C(=O)N[C@@H](CCCCN)C(=O)N[C@@H](CC(N)=O)C(=O)N[C@@H](CCC(=O)O)C(=O)N[C@@H](C)C(=O)N[C@@H](C)C(=O)N[C@@H](CC(C)C)C(=O)N[C@@H](CCCNC(=N)N)C(N)=O)[C@@H](C)CC)[C@@H](C)CC) [peptide 14],46
2,Ac-ENYLALIEALIRAAQEQQEKNEAALR-NH2 [peptide 8],46
3,Pentanoyl-ECYLRCIEELIRKAQEQQEKNEAALR-NH2 (linker 2-6 via pXylylene; SMILES CCCCC(=O)N[C@@H](CCC(=O)O)C(=O)N[C@H]1CSCc2ccc(cc2)CSC[C@@H](C(=O)N[C@H](C(=O)N[C@@H](CCC(=O)O)C(=O)N[C@@H](CCC(=O)O)C(=O)N[C@@H](CC(C)C)C(=O)N[C@H](C(=O)N[C@@H](CCCNC(=N)N)C(=O)N[C@@H](CCCCN)C(=O)N[C@@H](C)C(=O)N[C@@H](CCC(N)=O)C(=O)N[C@@H](CCC(=O)O)C(=O)N[C@@H](CCC(N)=O)C(=O)N[C@@H](CCC(N)=O)C(=O)N[C@@H](CCC(=O)O)C(=O)N[C@@H](CCCCN)C(=O)N[C@@H](CC(N)=O)C(=O)N[C@@H](CCC(=O)O)C(=O)N[C@@H](C)C(=O)N[C@@H](C)C(=O)N[C@@H](CC(C)C)C(=O)N[C@@H](CCCNC(=N)N)C(N)=O)[C@@H](C)CC)[C@@H](C)CC)NC(=O)[C@H](CCCNC(=N)N)NC(=O)[C@H](CC(C)C)NC(=O)[C@H](Cc2ccc(O)cc2)NC1=O) [peptide 91],2
4,Suc-[dA]NYLALIEALIRAAQEQQEKNEAAL[dR]-NH2 (SMILES CC[C@H](C)[C@H](NC(=O)[C@H](CC(C)C)NC(=O)[C@H](C)NC(=O)[C@H](CCC(=O)O)NC(=O)[C@@H](NC(=O)[C@H](CC(C)C)NC(=O)[C@H](C)NC(=O)[C@H](CC(C)C)NC(=O)[C@H](Cc1ccc(O)cc1)NC(=O)[C@H](CC(N)=O)NC(=O)[C@@H](C)NC(=O)CCC(=O)O)[C@@H](C)CC)C(=O)N[C@@H](CCCNC(=N)N)C(=O)N[C@@H](C)C(=O)N[C@@H](C)C(=O)N[C@@H](CCC(N)=O)C(=O)N[C@@H](CCC(=O)O)C(=O)N[C@@H](CCC(N)=O)C(=O)N[C@@H](CCC(N)=O)C(=O)N[C@@H](CCC(=O)O)C(=O)N[C@@H](CCCCN)C(=O)N[C@@H](CC(N)=O)C(=O)N[C@@H](CCC(=O)O)C(=O)N[C@@H](C)C(=O)N[C@@H](C)C(=O)N[C@@H](CC(C)C)C(=O)N[C@H](CCCNC(=N)N)C(N)=O) [peptide 12],51
5,Ac-ANYLALIEELIRAAQEQQEKNEAALR-NH2 [peptide 10],50
6,Suc-ANYLALIEALIRAAQEQQEKNEAALK(Palmitoyl)-NH2 (SMILES CCCCCCCCCCCCCCCC(=O)NCCCC[C@H](NC(=O)[C@H](CC(C)C)NC(=O)[C@H](C)NC(=O)[C@H](C)NC(=O)[C@H](CCC(=O)O)NC(=O)[C@H](CC(N)=O)NC(=O)[C@H](CCCCN)NC(=O)[C@H](CCC(=O)O)NC(=O)[C@H](CCC(N)=O)NC(=O)[C@H](CCC(N)=O)NC(=O)[C@H](CCC(=O)O)NC(=O)[C@H](CCC(N)=O)NC(=O)[C@H](C)NC(=O)[C@H](C)NC(=O)[C@H](CCCNC(=N)N)NC(=O)[C@@H](NC(=O)[C@H](CC(C)C)NC(=O)[C@H](C)NC(=O)[C@H](CCC(=O)O)NC(=O)[C@@H](NC(=O)[C@H](CC(C)C)NC(=O)[C@H](C)NC(=O)[C@H](CC(C)C)NC(=O)[C@H](Cc1ccc(O)cc1)NC(=O)[C@H](CC(N)=O)NC(=O)[C@H](C)NC(=O)CCC(=O)O)[C@@H](C)CC)[C@@H](C)CC)C(N)=O) [peptide 13],2
7,Suc-ECYLACIEELIRKAQEQQEKNEAALR-NH2 (linker 2-6 via pXylylene; SMILES CC[C@H](C)[C@H](NC(=O)[C@@H]1CSCc2ccc(cc2)CSC[C@H](NC(=O)[C@H](CCC(=O)O)NC(=O)CCC(=O)O)C(=O)N[C@@H](Cc2ccc(O)cc2)C(=O)N[C@@H](CC(C)C)C(=O)N[C@@H](C)C(=O)N1)C(=O)N[C@@H](CCC(=O)O)C(=O)N[C@@H](CCC(=O)O)C(=O)N[C@@H](CC(C)C)C(=O)N[C@H](C(=O)N[C@@H](CCCNC(=N)N)C(=O)N[C@@H](CCCCN)C(=O)N[C@@H](C)C(=O)N[C@@H](CCC(N)=O)C(=O)N[C@@H](CCC(=O)O)C(=O)N[C@@H](CCC(N)=O)C(=O)N[C@@H](CCC(N)=O)C(=O)N[C@@H](CCC(=O)O)C(=O)N[C@@H](CCCCN)C(=O)N[C@@H](CC(N)=O)C(=O)N[C@@H](CCC(=O)O)C(=O)N[C@@H](C)C(=O)N[C@@H](C)C(=O)N[C@@H](CC(C)C)C(=O)N[C@@H](CCCNC(=N)N)C(N)=O)[C@@H](C)CC) [peptide 90],6
8,Suc-ANYLALIEALIRAAQEQQEKNEAALR-NH2 (SMILES CC[C@H](C)[C@H](NC(=O)[C@H](CC(C)C)NC(=O)[C@H](C)NC(=O)[C@H](CCC(=O)O)NC(=O)[C@@H](NC(=O)[C@H](CC(C)C)NC(=O)[C@H](C)NC(=O)[C@H](CC(C)C)NC(=O)[C@H](Cc1ccc(O)cc1)NC(=O)[C@H](CC(N)=O)NC(=O)[C@H](C)NC(=O)CCC(=O)O)[C@@H](C)CC)C(=O)N[C@@H](CCCNC(=N)N)C(=O)N[C@@H](C)C(=O)N[C@@H](C)C(=O)N[C@@H](CCC(N)=O)C(=O)N[C@@H](CCC(=O)O)C(=O)N[C@@H](CCC(N)=O)C(=O)N[C@@H](CCC(N)=O)C(=O)N[C@@H](CCC(=O)O)C(=O)N[C@@H](CCCCN)C(=O)N[C@@H](CC(N)=O)C(=O)N[C@@H](CCC(=O)O)C(=O)N[C@@H](C)C(=O)N[C@@H](C)C(=O)N[C@@H](CC(C)C)C(=O)N[C@@H](CCCNC(=N)N)C(N)=O) [peptide 7],33
9,Ac-ENYLALIEALIRAAQEQQEKNEAALL-NH2 [peptide 9],72
10,Suc-ANYLALIEAL[tBuAla]RAAQEQQEKNEAALR-NH2 (SMILES CC[C@H](C)[C@H](NC(=O)[C@H](CC(C)C)NC(=O)[C@H](C)NC(=O)[C@H](CC(C)C)NC(=O)[C@H](Cc1ccc(O)cc1)NC(=O)[C@H](CC(N)=O)NC(=O)[C@H](C)NC(=O)CCC(=O)O)C(=O)N[C@@H](CCC(=O)O)C(=O)N[C@@H](C)C(=O)N[C@@H](CC(C)C)C(=O)N[C@@H](CC(C)(C)C)C(=O)N[C@@H](CCCNC(=N)N)C(=O)N[C@@H](C)C(=O)N[C@@H](C)C(=O)N[C@@H](CCC(N)=O)C(=O)N[C@@H](CCC(=O)O)C(=O)N[C@@H](CCC(N)=O)C(=O)N[C@@H](CCC(N)=O)C(=O)N[C@@H](CCC(=O)O)C(=O)N[C@@H](CCCCN)C(=O)N[C@@H](CC(N)=O)C(=O)N[C@@H](CCC(=O)O)C(=O)N[C@@H](C)C(=O)N[C@@H](C)C(=O)N[C@@H](CC(C)C)C(=O)N[C@@H](CCCNC(=N)N)C(N)=O) [peptide 11],26
11,Pentanoyl-ANYLALIEALIRAAQEQQEKNEAALR-NH2 (SMILES CCCCC(=O)N[C@@H](C)C(=O)N[C@@H](CC(N)=O)C(=O)N[C@@H](Cc1ccc(O)cc1)C(=O)N[C@@H](CC(C)C)C(=O)N[C@@H](C)C(=O)N[C@@H](CC(C)C)C(=O)N[C@H](C(=O)N[C@@H](CCC(=O)O)C(=O)N[C@@H](C)C(=O)N[C@@H](CC(C)C)C(=O)N[C@H](C(=O)N[C@@H](CCCNC(=N)N)C(=O)N[C@@H](C)C(=O)N[C@@H](C)C(=O)N[C@@H](CCC(N)=O)C(=O)N[C@@H](CCC(=O)O)C(=O)N[C@@H](CCC(N)=O)C(=O)N[C@@H](CCC(N)=O)C(=O)N[C@@H](CCC(=O)O)C(=O)N[C@@H](CCCCN)C(=O)N[C@@H](CC(N)=O)C(=O)N[C@@H](CCC(=O)O)C(=O)N[C@@H](C)C(=O)N[C@@H](C)C(=O)N[C@@H](CC(C)C)C(=O)N[C@@H](CCCNC(=N)N)C(N)=O)[C@@H](C)CC)[C@@H](C)CC) [peptide 15],18
12,Ac-ANYLALIEALIRAAQEQQEKNEAALR-NH2 [peptide 6],51
13,Pentanoyl-ECYLCLIEELIRKAQEQQEKNEAALR-NH2 (linker 2-5 via pXylylene; SMILES CCCCC(=O)N[C@@H](CCC(=O)O)C(=O)N[C@H]1CSCc2ccc(cc2)CSC[C@@H](C(=O)N[C@@H](CC(C)C)C(=O)N[C@H](C(=O)N[C@@H](CCC(=O)O)C(=O)N[C@@H](CCC(=O)O)C(=O)N[C@@H](CC(C)C)C(=O)N[C@H](C(=O)N[C@@H](CCCNC(=N)N)C(=O)N[C@@H](CCCCN)C(=O)N[C@@H](C)C(=O)N[C@@H](CCC(N)=O)C(=O)N[C@@H](CCC(=O)O)C(=O)N[C@@H](CCC(N)=O)C(=O)N[C@@H](CCC(N)=O)C(=O)N[C@@H](CCC(=O)O)C(=O)N[C@@H](CCCCN)C(=O)N[C@@H](CC(N)=O)C(=O)N[C@@H](CCC(=O)O)C(=O)N[C@@H](C)C(=O)N[C@@H](C)C(=O)N[C@@H](CC(C)C)C(=O)N[C@@H](CCCNC(=N)N)C(N)=O)[C@@H](C)CC)[C@@H](C)CC)NC(=O)[C@H](CC(C)C)NC(=O)[C@H](Cc2ccc(O)cc2)NC1=O) [peptide 92],2
